The record followed here is patent US20150098924A1 (TOPOTARGET SWITZERLAND, published 2015).

The assay deals with T1, Fas receptor (human, UniProt P25445 26-335).
T1 sequence (looked up): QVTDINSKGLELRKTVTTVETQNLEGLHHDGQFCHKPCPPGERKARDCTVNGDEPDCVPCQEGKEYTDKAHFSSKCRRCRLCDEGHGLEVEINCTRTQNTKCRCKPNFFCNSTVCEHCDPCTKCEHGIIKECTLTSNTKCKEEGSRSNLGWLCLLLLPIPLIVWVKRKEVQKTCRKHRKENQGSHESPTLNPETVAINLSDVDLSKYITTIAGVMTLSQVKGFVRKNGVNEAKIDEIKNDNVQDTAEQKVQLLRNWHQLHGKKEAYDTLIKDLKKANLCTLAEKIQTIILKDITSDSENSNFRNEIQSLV
The assay is described as follows: cell-based or functional assay.

Take CH11 (antibody): the IC50 (ng/ml), PESMTS survival assay, ARH-77 cells was over 10000 ng/mL; the IC50 (ng/ml), PESMTS survival assay, DOHH2 cells is over 10000 ng/mL; the IC50 (ng/ml), PESMTS survival assay, HL60 (AML-M3) cells was over 10000 ng/mL; the IC50 (ng/ml), PESMTS survival assay, Jurkat cells was 6.58 ng/mL. Moreover, the IC50 (ng/ml), PESMTS survival assay, K562 cells was over 10000 ng/mL; the IC50 (ng/ml), PESMTS survival assay, NB4 (AML-M3) cells is over 10000 ng/mL; the IC50 (ng/ml), PESMTS survival assay, Namalwa (ALL-L3) cells is over 10000 ng/mL; the IC50 (ng/ml), PESMTS survival assay, RPMI-8226 cells was over 10000 ng/mL. Also, the IC50 (ng/ml), PESMTS survival assay, Raji (ALL-L3) cells turned out to be 15.8 ng/mL; the IC50 (ng/ml), PESMTS survival assay, SC-1 cells is over 10000 ng/mL; the IC50 (ng/ml), PESMTS survival assay, U266 cells is over 10000 ng/mL.

B1: MegaFasL (fusion polypeptide m or hACRP30:hFasL) (ligand)
chain: QLFHLQKELAELRESTSQMHTASSLEKQIGHPSPPPEKKELRKVAHLTGKSNSRSMPLEWEDTYGIVLLSGVKYKKGGLVINETGLYFVYSKVYFRGQSCNNLPLSHKVYMRNSKYPQDLVMMEGKMMSYCTTGQMWARSSYLGAVFNLTSADHLYVNVSELSLVNFEESQTFFGLYKL
For B1, the “IC50 (ng/ml), PESMTS survival assay, ARH-77 cells” value came to 10.4 ng/mL; the “IC50 (ng/ml), PESMTS survival assay, DOHH2 cells” value is 1.17 ng/mL; the “IC50 (ng/ml), PESMTS survival assay, HL60 (AML-M3) cells” value worked out at 213 ng/mL; the “IC50 (ng/ml), PESMTS survival assay, Jurkat cells” value is 0.06 ng/mL. In addition, the “IC50 (ng/ml), PESMTS survival assay, K562 cells” value was over 10000 ng/mL; the “IC50 (ng/ml), PESMTS survival assay, NB4 (AML-M3) cells” value is 16 ng/mL; the “IC50 (ng/ml), PESMTS survival assay, Namalwa (ALL-L3) cells” value worked out at 57 ng/mL; the “IC50 (ng/ml), PESMTS survival assay, OPM2 cells” value was found to be 2.19 ng/mL. Besides, the “IC50 (ng/ml), PESMTS survival assay, RPMI-8226 cells” value was 3.57 ng/mL; the “IC50 (ng/ml), PESMTS survival assay, Raji (ALL-L3) cells” value was found to be 5.6 ng/mL; the “IC50 (ng/ml), PESMTS survival assay, SC-1 cells” value is over 10000 ng/mL; the “IC50 (ng/ml), PESMTS survival assay, U266 cells” value was found to be 6.2 ng/mL.
